Measurements as given in publication PMC9668737, “Herpes simplex virus 1 protein pUL21 alters ceramide metabolism by activating the interorganelle transport protein CERT” (The Journal of Biological Chemistry, 2022).

Columns and labels:
StrepII-CERT^P = molecular target: T1, StrepII-CERT^P (UniProt Q9Y5P4-2 1-598, hyperphosphorylated (sites not given)); assay: cell-based or functional assay
T1 sequence (looked up): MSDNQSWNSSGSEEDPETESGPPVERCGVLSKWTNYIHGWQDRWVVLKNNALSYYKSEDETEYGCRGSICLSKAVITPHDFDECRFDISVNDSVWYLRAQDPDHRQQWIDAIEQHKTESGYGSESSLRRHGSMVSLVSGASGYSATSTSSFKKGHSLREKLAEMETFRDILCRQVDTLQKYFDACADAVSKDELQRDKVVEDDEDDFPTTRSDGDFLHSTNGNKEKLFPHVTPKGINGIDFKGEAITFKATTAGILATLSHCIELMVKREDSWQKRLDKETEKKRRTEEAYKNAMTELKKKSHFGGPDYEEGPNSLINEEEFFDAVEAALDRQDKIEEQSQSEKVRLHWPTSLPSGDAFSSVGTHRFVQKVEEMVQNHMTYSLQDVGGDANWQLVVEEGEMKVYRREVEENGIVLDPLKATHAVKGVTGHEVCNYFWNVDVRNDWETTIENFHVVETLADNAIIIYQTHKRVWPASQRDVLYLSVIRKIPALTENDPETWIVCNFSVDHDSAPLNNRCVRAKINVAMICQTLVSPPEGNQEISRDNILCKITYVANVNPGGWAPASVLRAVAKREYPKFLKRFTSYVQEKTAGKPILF

[1] = molecular target: T2, StrepII-CERTL^P (hyperphosphorylated StrepII-tagged CERTL) (human, UniProt Q9Y5P4-1 1-624, hyperphosphorylated (sites not given)); assay: ITC; 25 °C; 20 mM Tris pH 8.5, 500 mM NaCl, 0.5 mM TCEP; CERTL forms in the syringe titrated into pUL21 forms in the cell; one-site binding model; details: both partners purified
T2 construct: human CERTL, UniProt Q9Y5P4-1, synthetic gene; Trimer by SEC-MALS (observed 184.3 kDa, expected 215.7 kDa); not shown: StrepII, N-terminal, kept
T2 sequence (looked up): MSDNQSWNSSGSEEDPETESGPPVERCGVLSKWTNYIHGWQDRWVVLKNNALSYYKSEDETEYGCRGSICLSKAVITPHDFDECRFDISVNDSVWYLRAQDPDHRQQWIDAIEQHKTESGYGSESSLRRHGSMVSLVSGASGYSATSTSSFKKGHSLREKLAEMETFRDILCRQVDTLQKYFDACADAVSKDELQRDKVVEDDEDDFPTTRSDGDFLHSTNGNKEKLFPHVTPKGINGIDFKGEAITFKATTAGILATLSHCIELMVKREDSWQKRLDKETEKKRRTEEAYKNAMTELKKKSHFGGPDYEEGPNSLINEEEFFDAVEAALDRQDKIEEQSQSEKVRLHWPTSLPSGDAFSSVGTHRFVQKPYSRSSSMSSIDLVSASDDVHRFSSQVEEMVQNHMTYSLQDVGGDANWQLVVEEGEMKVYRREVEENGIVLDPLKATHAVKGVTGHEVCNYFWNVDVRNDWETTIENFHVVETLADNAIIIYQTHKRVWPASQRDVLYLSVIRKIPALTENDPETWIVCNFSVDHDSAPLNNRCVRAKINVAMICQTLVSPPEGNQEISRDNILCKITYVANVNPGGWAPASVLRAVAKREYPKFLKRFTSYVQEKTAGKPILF

StrepII-CERTL^S132A = molecular target: T3, StrepII-CERTL^S132A (human, UniProt Q9Y5P4-1 1-624, S132A, hypophosphorylated); assay: as above; details: both partners purified
T3 construct: human CERTL, UniProt Q9Y5P4-1, synthetic gene, S132A; Trimer by SEC-MALS (observed 199.2 kDa); also called constitutively hypophosphorylated form of CERTL; source: Freestyle 293F, stably transfected, doxycycline-induced, purified (StrepTrap HP, Superose 6 SEC); not shown: StrepII, N-terminal, kept
T3 sequence (looked up): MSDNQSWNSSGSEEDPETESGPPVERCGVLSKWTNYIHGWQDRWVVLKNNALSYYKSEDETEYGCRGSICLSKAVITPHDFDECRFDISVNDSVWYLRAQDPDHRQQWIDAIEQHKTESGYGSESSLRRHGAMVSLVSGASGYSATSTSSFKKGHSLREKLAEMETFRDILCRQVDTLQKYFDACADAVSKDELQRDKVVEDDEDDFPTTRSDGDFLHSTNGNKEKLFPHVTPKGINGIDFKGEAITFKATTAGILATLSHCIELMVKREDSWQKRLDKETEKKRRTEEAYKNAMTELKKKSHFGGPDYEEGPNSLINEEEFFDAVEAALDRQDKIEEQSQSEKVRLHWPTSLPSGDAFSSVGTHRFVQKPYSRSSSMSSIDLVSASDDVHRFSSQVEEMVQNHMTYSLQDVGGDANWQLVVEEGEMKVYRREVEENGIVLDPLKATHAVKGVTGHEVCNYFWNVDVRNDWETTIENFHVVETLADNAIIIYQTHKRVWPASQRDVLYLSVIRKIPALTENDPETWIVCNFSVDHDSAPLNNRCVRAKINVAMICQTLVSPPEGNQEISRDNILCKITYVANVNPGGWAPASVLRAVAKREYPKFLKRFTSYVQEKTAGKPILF

B1: pUL21-H6 (natural protein)
chain: MELSYATTMHYRDVVFYVTTDRNRAYFVCGGCVYSVGRPCASQPGEIAKFGLVVRGTGPDDRVVANYVRSELRQRGLQDVRPIGEDEVFLDSVCLLNPNVSSELDVINTNDVEVLDECLAEYCTSLRTSPGVLISGLRVRAQDRIIELFEHPTIVNVSSHFVYTPSPYVFALAQAHLPRLPSSLEALVSGLFDGIPAPRQPLDAHNPRTDVVITGRRAPRPIAGSGAGSGGAGAKRATVSEFVQVKHIDRVGPAGVSPAPPPNNTDSSSLVPGAQDSAPPGPTLRELWWVFYAADRALEEPRADSGLTREEVRAVRGFREQAWKLFGSAGAPRAFIGAALGLSPLQKLAVYYYIIHRERRLSPFPALVRLVGRYTQRHGLYVPRPDDPVLADAINGLFRDALAAGTTAEQLLMFDLLPPKDVPVGSDVQADSTALLRFIESQRLAVPGGVISPEHVAYLGAFLSVLYAGRGRMSAATHTARLTGVTSLVLAVGDVDRLSAFDRGAAGAASRTRAAGYLDVLLTVRLARSQHGQSV
notes: HSV-1 pUL21, UniProt F8RG07; some paragraphs print H6-pUL21; also called H6-pUL21; WT pUL21; source: E. coli T7 Express lysY/Iq, purified (Ni-NTA, SEC); not shown: His6, C-terminal, kept
EC50 of pUL21-H6 (62.5 nM to 4 μM) for accelerating GST-PP1-mediated dephosphorylation of 0.5 μM CERT^P in vitro, all proteins purified, 25 nM GST-PP1γ, 30 min at 30 °C (StrepII-CERT^P): 0.491 μM
Kd [1]: 773 nM
Kd (StrepII-CERTL^S132A): 642 nM
